These results are taken from patent publication US20150166647A1 (VLST, published 2015).

For one assay, the target named is T1, mouse MIP-1α/CCL3 (mouse, UniProt P10855 24-92).
T1 construct: also called muMIP-1α
T1 sequence: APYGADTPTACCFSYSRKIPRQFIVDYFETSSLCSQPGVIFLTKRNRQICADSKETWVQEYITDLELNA
Put plainly: MSD electrochemiluminescence, chemokine coated at 1 µg/mL.

In the next assay the target is T2, mouse MIP-1β/CCL4 (mouse, UniProt P14097 24-92).
T2 construct: also called muMIP-1β
T2 sequence: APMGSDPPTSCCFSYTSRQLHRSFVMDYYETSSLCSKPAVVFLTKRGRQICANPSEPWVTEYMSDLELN
The description is as above.

The target in a further assay is T3, mouse RANTES/CCL5 (mouse, UniProt P30882 24-91).
T3 construct: also called muRANTES
T3 sequence (P30882 24-91 limits assumed): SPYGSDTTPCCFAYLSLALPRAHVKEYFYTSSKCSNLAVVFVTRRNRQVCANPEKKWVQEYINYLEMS
Described as above.

A further assay has as its target T4, I-309.
T4 construct: also called I-309/CCL1; CCL1
T4 chemokine: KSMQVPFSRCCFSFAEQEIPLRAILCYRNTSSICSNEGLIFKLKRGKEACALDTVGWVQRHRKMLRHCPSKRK
Kind of assay: MSD electrochemiluminescence assay; chemokine coated at 1 µg/mL, 18P7E as unquantitated hybridoma supernatant; background = BSA.

The target in the next assay is T5, IL-8.
T5 construct: also called IL-8/CXCL8; CXCL8
T5 sequence (chemokine, as listed by the source): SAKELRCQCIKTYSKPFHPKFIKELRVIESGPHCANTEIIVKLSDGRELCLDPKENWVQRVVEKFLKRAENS
The assay is described as above.

A further assay deals with T6, SDF.
T6 construct: also called SDF-1/CXCL12; CXCL12
T6 sequence (chemokine, as listed by the source): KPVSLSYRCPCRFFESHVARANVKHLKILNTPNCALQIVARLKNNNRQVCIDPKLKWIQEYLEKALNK
Described as above.

A further assay has as its target T7, Fractalkine.
T7 construct: also called Fractalkine/CX3CL1; CX3CL1
T7 chemokine: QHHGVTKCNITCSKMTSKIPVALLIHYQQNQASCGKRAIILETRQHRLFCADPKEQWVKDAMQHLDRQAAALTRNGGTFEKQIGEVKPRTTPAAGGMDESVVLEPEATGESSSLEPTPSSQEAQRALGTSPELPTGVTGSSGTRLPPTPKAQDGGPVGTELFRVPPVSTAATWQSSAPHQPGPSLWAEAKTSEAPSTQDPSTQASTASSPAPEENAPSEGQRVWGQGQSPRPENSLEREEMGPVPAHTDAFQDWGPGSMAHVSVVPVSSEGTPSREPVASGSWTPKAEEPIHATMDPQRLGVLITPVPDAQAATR
Described as above.

The target in another assay is T8, HCC-4.
T8 construct: also called HCC-4/CCL16; CCL16
T8 chemokine: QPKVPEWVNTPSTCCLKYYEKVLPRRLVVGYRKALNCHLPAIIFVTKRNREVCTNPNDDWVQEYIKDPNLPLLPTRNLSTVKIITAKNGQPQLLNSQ
The assay is described as above.

Another assay deals with T9, MCP-2.
T9 construct: also called MCP-2/CCL8; CCL8
T9 chemokine: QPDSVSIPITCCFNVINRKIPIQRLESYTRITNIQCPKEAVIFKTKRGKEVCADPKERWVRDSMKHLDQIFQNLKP
Described as above.

Another assay addresses T10, MCP-3.
T10 construct: also called MCP-3/CCL7; CCL7
The assay is described as above.

The target in another assay is T11, MCP-4.
T11 construct: also called MCP-4/CCL13; CCL13
T11 sequence (chemokine, as listed by the source): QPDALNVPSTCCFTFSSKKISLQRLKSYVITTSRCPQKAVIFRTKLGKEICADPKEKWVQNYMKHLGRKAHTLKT
Described as above.

Another assay has as its target T12, Eotaxin.
T12 construct: also called Eotaxin/CCL11; CCL11
The description is as above.

A further assay addresses T13, MDC.
T13 construct: also called MDC/CCL22; CCL22
T13 chemokine: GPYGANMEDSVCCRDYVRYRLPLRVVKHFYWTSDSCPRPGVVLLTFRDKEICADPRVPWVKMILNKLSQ
The assay is described as above.

The next assay concerns the target T14, ELC.
T14 construct: also called ELC/MIP-3β/CCL19; CCL19
T14 chemokine: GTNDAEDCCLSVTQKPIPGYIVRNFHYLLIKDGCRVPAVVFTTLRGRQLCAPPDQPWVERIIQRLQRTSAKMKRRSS
Described as above.

The target in another assay is T15, human MPIF-1/CCL23 (human, UniProt P55773 46-120).
T15 sequence: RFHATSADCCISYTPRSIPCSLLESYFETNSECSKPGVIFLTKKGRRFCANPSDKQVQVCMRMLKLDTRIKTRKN
Described as above.

A further assay has as its target T16, human HCC-2/MIP-1δ/CCL15 (human, UniProt Q16663 46-113).
T16 sequence: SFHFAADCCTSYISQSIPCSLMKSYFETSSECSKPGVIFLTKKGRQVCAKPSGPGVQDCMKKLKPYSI
The assay is described as above.

A further assay has as its target T17, human HCC-1/CCL14/CCL14a (human, UniProt Q16627 28-93).
T17 sequence: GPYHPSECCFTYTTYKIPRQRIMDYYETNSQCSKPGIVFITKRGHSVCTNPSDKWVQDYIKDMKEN
Described as above.

The next assay concerns the target T18, human PARC/CCL18 (human, UniProt P55774 21-89).
T18 sequence: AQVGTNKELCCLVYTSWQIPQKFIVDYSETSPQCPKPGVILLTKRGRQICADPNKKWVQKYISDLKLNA
Described as above.

In another assay the target is T19, human MCP-1/CCL2 (human, UniProt P13500 24-99).
T19 construct: also called Biotin-MCP1
T19 sequence (P13500 24-99 limits assumed): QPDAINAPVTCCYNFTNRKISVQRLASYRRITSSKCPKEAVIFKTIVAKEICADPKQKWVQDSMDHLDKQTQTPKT
The description is as above.

T10 sequence (chemokine, as listed by the source): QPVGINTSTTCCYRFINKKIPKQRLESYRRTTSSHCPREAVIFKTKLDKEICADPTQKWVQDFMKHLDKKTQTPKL
T12 sequence (chemokine, as listed by the source): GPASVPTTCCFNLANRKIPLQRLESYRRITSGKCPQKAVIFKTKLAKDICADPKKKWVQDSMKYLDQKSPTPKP

B1: monoclonal antibody 18P7E (antibody, V domains shown)
VH: QVQLKESGPGLVAPSQSLSITCTVSGFSLTGYGIHWVRQPPGKGLEWLGVIWPGGGTNYNSALMSRLNISKDNSKSQVFLKMNSLQTDDTAMYYCARGPLITTEVSMDYWGQGTSVTVSS
VL: QAVVTQESALTTSPGETVTLTCRSNTGAVTTSNYANWVQEKPDHLFTGLIGGTNNRAPGVPARFSGSLIGDKAALTITGAQTEDEAIYFCALWYSNHWVFGGGTKLTVLG
notes: also called MAb 18P7E
On to B1, for which the binding result with mouse MIP-1α/CCL3, with mouse MIP-1β/CCL4, in the assay with mouse RANTES/CCL5, with I-309, with IL-8 and with SDF was “no binding (tested: unquantitated hybridoma supernatant)” throughout. Further, the binding result with Fractalkine, in the assay with HCC-4, with MCP-2, with MCP-3, in the assay with MCP-4 and with Eotaxin was “no binding (tested: unquantitated hybridoma supernatant)” in each case. Further, the binding result with MDC, with ELC, with human MPIF-1/CCL23, with human HCC-2/MIP-1δ/CCL15, with human HCC-1/CCL14/CCL14a and in the assay with human PARC/CCL18 was “no binding (tested: unquantitated hybridoma supernatant)” throughout. The binding result with human MCP-1/CCL2 is listed as “no binding (tested: unquantitated hybridoma supernatant)”.
